Laboratory results published in the DeepSol protein solubility set.

Test: soluble on expression in E. coli; label from the status in PepcDB or PDB records

Sequence	soluble on expression in E. coli
GDDNEIEIPKAPVLEKAQLALAIKSEEGAVTKTGETTPTDADVNTLTVGVFGVDGWSVIYTKDATPNSDGTKDVGPQEVYAGEAHVVVVANAAPVIQTELAKAKDITDFIETTINLSDETLTKGLTMSSKVLDVTLVANTTNYIGYDDEVGDITVKDISGKEVYGAGPVPLVRDVASIALAGADIGNPENANYESKSFVLKEVFIASAKGVSSVASTEEWGTIEKDFFGDTHFGYLDYKVGLLFLTSPNNIDEGSYKKGLQTKYDALAKKHVENDPALNHEFYVYENTKGEVKSGESNVNEAYANHTLLIVKGDYTYLPQGAKESITKENCYYAIPVGEEVTIDGTEKRSKFYVQRNYKYEISLTIIGPGSEIPYDPMISTNVSASVKVEPWNVKTIHEEVE	soluble
MNINKSKKRDSAVDIDNHDPFSVLLMGVDERDGDKGRADSLIYMTVNPKTKTTEMVSIPRDTYTEIIGKGKMDKINHSYAFGGVQMTVDTVENFLDVPVDYFIKVNMESFKDVVDTLGGITVNSTFAFNYDGYSFGKGEITLNGKEALAYTRMRKEDPNGDFGRQNRQRQVIEGIINKGANISSITKFGDMFKVIENNVKTNLTFDDMWDIQSGYKEARSKVIQHELKGDGTKINGIYYYKADESSLSDITAELKESLNKLEHHHHHH	soluble
MHFADPREAREFLAAHPEVRSIELFLIDANGVPRGKLLHRDELLAVYESGRPLPSTILGLTINGDDVEETGLVWDVGDADCWTFPLPGSLTLQPWRQSPTGQVQVSMHPELGLPAAAGDPRHVLQRVIHSLQAEGFHPVMAVELEFYLLDRERDSDGRPLPALQMNGQRPRATQVYGVYELEQLQPFLDDLYAACEAQGLPARTAISEYAPGQVEITLQHRFDTLQAIDEGVRYKRLVKGVANRHGLQACFMAKPFADLSGSGLHLHVSLADAAGNNLFASEDPAGTPLLRQAIGGMKACLLESLALFCPNANSFRRFQANSYAPLAPTWGINNRTVSLRVPGGPASSRHIEHRICGADANPYLAAAALLAAVRLGIRERLDPGAPITGNGYAQATQALPSDWLTALRALEGSAWAREALGEDFLKIYLAIKQAEYRAFMGEVGE	not soluble
MIRKDDILKMTEKGISVFRYYLPVDFKVGKNFLNPFYKDTKASCNIYYERKAGVFKMKDFGNEDYSGDCFELVGRLNGLSCKEPKEFVEIMEMINRDLHLGLSAHEEYHVSHSKVPQKSEVVSEEPKAKSVRPYTVVQKPFTAAELAFWGKSGIGENVLKAYRTVSLKKFSSENQERKPFSCMTSVDEPMFGYMGKQHIKVYRPCSQMRFLYAGDFGDNYCFGLEQLPAKGDLLFITGGEKDVMSLAAHGFHAICFNSETAFIPAAVIHRLSFRFKHIILLYDVDSTGLKSSAKREEELKEYGIKRLLLPLAGTKTEKDVSDYFMLGNSREDLIKLFLDYLETLYSETMSALKSCEVDFNNPPPIAQMIVSVNDVPLGTQGNLLCITGGEGTGKSNYVAALIAGAIRPTGTDVDALGVTLHENSRNKAVLFYDTEQSEVQLYKNISNLLRRCGREAMPEWFKAYCLTGMSRKERLLSIIQSLDKYHYQYGGVHLVVIDGIADLIKCANDEAESIAVVEELYRLAGIYKTCIVTVLHFIPNGLKLRGHLGSELQRKAAAILSIEKDSDPAISVVKALKVRDGSPLDVPIMQFSWDKEKAMHVYLGEKPKEEKDKRKEDELVAVAKEVFSRRRFVTYVELAEEIQSILEVKERTAKSYIRFMREKEIILKSSDNQSYYVVGNF	not soluble
SLQLESLISAAPALSQQAVDQEWSYMDFLEHLLHEEKLARHQRKQAMYTRMAAFPAVKTFEEYDFTFATGAPQKQLQSLRSLSFIERNENIVLLGPSGVGKTHLAIAMGYEAVRAGIKVRFTTAADLLLQLSTEQRQGRYKTTLQRGVMAPRLLIIDEIGYLPFSQEEAKLFFQVIAKRYEKSAMILTSNLPFGQWDQTFAGDAALTSAMLDRILHHSHVVQIKGESYRLRQKRKAGVIAEANP	not soluble
MGSDKIHHHHHHMTSEKGIIFNIQHFSIHDGPGIRTTVFLKGCPLRCPWCSNPESQKYKPEQMLDAETKLPMIIGEEKTVEDIISEVKKDIDFYEESGGGLTLSGGEIFAQFEFAKAILKCAKEEGLHTAIETTAFAEHEKFTDLIQYVDFIYTDLKHYNTIRHRKVTGVNNNFIIQNIHYAFTHKKTIVLRIPVIPDFNNSLDDAEHFAKLFNDIQVDKVQLLPFHQFGENKYKFLNRKYEMSGYTALHPEDLYDYQSVFLEHGIDCYF	not soluble
MIRINNIILDIDEDLENLKNKAAKKLKVSKESFESFKILRESIDARKKDVIKFNYSVEVKCKNESKIISKIHGKDAILEKNKEEERFQFGNEKLKHRPIVIGTGPCGMFAALTLAENGYAPLVIERGENVEKRTETVDNFWKTGVLNTESNVQFGEGGAGTFSDGKLTTRIKDPRCTYVLEEFIKSGAPEEIGYVGKPHIGTDILKKVVKNIRERIISLGGEVKFNSKLEDIIIKNDSIEAVVVNGAEIPCECLVLAIGHSSRDTYEMLHKKGIFMDPKPFAIGVRIEHPQDFINESQYGKYKNHPRLKAADYKLTHTTKDKRGVYSFCMCPGGEVVASSSEDERLVCNGMSYYKRDLENANAALVVTVNSEDFKASKELYNKDISDNSPLIGMEFQRYYEHLAYLAGGGNYNAPIQLVGDFMKDTVSSKLGSVKPSYTPGYKFASLSECLPPYVIAALKEGLVNFDKKITGYMLSDAVMTGIETRTSAPLKITRNESLESISLKGLYPSGEGAGFAGGIISAAVDGVKSAESIMRKYKILEHHHHHH	not soluble
MSLASVDPYEHLNAWVSAIETSGVLVLATRGGKVAIDEMRGMCLYFDELPVIVLNGSDHPRPRLFSLLHEFVHVVLHTEGLCDVIADAHPSTQDRSLEARCNAIAAAVLMPADVVRARPEVIVRSETPSSWDYESLRPVAAHFGVSAEAFLRRLSTLGIVPVEVYRQRRAEFIAAHEDEAERARSAGGGNWYRNTVRDLGKGYVRAVTDAHRRRVIDSNTAAIYLDAKVSQIPKLAESAELRSVEGHHHHHH	not soluble
MANHPRAGQPAQQSDLINVAQLTSQYYVLQPDAEDPAHAVKFGTSGHRGSSVRHSFNEAHILAIAQAIAEVRHQHGISGPCYVGKDTHALSEPAFISVLEVLTANGVDVVVQQDNGFTPTPAISHVILCHNAQGKALADGIVITPSHNPPEDGGIKYNPPNGGPADTNLTSVIEKRANQLLSQNLKGVKRQTLDKAWQSNHLREQDLLQPYVEGLVDVVDIPAIQQAGLKLGVDPLGGSGIAYWQRIAEYYKLDLTLVNNAIDQTFRFMHLDHDGVIRMDCSSESAMAGLLALRDKFDLAFANDPDYDRHGIVTPAGLMNPNHYLAVSINYLFQHRPQWGAGVAVGKTLVSSAMIDRVVADLGRKLVEVPVGFKWFVDGLHDGSFGFGGEESAGASFLRFNGTPWSTDKDGIIMCLLAAEITAVTGKDPQRHYDDLAQRFGAPSYNRIQAPATQAQKNALSRLSPEMVKANTLAGDPITARLTNAPGNGASIGGLKVMTENGWFAARPSGTEEAYKIYCESFLGAEHREKIEQEAVKIVSEVLAEAK	not soluble
MAHHHHHHMRRVLLFRNRVDFVATLLQQGRLADMLMLQHFTSRTPQKPPAGNAAERNSGGTKVSVGETSRRALLTRCEAVKAKAMSTPCTDWLADAYGSGEWCALSESRDMVRVVASDNDPTRVKLRGTFPVLVQEGSSPASVRLAASKESGEALIVTVPLVQSGEKVRSSAIGGGIRAVTLKEADGSVVSDAATSVDAFAAEQNILSAAVCSGILGKLEEICALHATHTVRYDALLVRNPAVQKRLSQLACARFSLDALSSFVASAAVDEPMPLVESVALRMHAKHALAIGMGSARDIIHGTAMLKASPHRSKPERLIDYPYAQQLFASERYVLSSLGASSAAETMRHFTPLLMQPQTHMPAGVQGPLASLLLGGKGGNVNLAAPHANLRVSAAFLEKDIAAMLQRIQQQKKRADPLFVMAIAQYVAELFANTAVVYRTTASLTHEDDSAPRDWLLTQAFCADSSARRATILCEWDLSSAARKAIGKAADLNGCTTHPVELMNAEPARKPKVPSKSAAASVTQEAN	not soluble
MVHSTDSFDFLGWNFVVKPNGKFISTPSQKATSSIKAKVKEVMKDSCFTLEERIDKCGAIVRGWRNYHRFCDMSQHNLWAIAYWTWKFIRKQGRYNRDQTNQVIHRAFPAVKWAACRFNNVTEDKSPLEHHHHHH	not soluble
MSLTFTEQAKDQAQASWQGSFQHPFITELHEGTLSPTIFRYYLIQDHYYLKHFSQLYRLIAAQTQQPRLKKLLLTNAENLALGELAIRETFFEELAITEEEVAATPIAPTAYHYVSHMYRQLIEGTPKTAAASMLPCSWLYQEIGAQLVKQHSPEPLYQRWIETYAGEEAYQHVQEERQLLDQLYEESSPQEQAAMITAFVISSEMEYAFWEMAYTHETWIGEGGSHHHHHH	soluble
MAPTNKDGDVATVKAVDVLKQKAGAHHCLGNVHANLPVNKVTVHPLVLLSVVDHFNRVSKTQSVKRVVGVLLGSMKKDKTLDIGNSFAVPFDEDDKDKSTWFLDMDYLESMYGMFYKVAAKEKIVGWYHTGPKLHKNDIAINEQLKRFCPNPVLVIIDAEPKNIGLPTEAYIEVQEVHDDGTPPIKTFEHVPSDIGAEEAEEVGVEHLLRDIKDQTAGTLSQRITDQLMGLRGLQSQLESIEKYLHDIVRGTLPVNHHVIYYVQEVLNLLPDVTHPDYIVSQNVQTNDQLMCVYMGSLVRSVVALHNLIDNKISLQKAEKEQETGEAEKKKDEKDKKDKKDEKKDEKKEKDSKSSTPNTPKK	not soluble
MSLVIFIMKKRYICILPYSLSYGGVFIDCKEVIANYWNFRSSTYKNGINGFDEEERAVWKQIFENSLASGKRLKVLDVGTGTGFLALLFAEMGHEVSGIDLSEGMLEKARHNADNMGLEISLFHGDAENLPFEDCSFDLVVNKYLLWTLQEPASAVREWKRVLKPGGMIFAIDGNWFDPRPDRYIKRMLYGLAERFAKKNQYNLIFKKSYGPIRNSLPLYEKISPKNISFLFSETGLMNTEISPLLEVQKFQRNRHSFSRRIFENNSIFLISGQKNEGHHHHHH	not soluble
MSLQPVAKTEQPEGGILYDFGKETFGFITLKNLSGKGKIDLYYGESPEEAKDKAYCETLDKLLLEPGQITDLAIRSTSPLHHSDNEYTLENSKAFRYVYITHEPEVQIGEVSMQYEYLPEEYRGNFRCNDEELNCIWEVGAYTMHLTTREFFIDGIKRDRWVWSGDAIQSYLMNYYLFFDSESVKRTIWLLRGKDPVTSHSNTIMDYTFYWFLSVYDYYMYSGDRHFVNQLYPRMQTMMDYVLGRTNKNGMVEGMSGDWVFVDWADGYLDKKGELSFEQVLFCRSLETMALCADLVGDKDGQQKYEKLASALKAKLEPTFWNNQKQAFVHNCVDGRQSDAVTRYANMFSVFFDYLNADKQQAIKQSVLLNDEILKITTPYMRFYELEALCALGEQETVMKEMKAYWGGMLKAGATSFWEKYNPEESGTQHLAMYGRPYGKSLCHAWGASPIYLLGKYYLGVKPTKEGYKEFAVSPVLGGLKWMEGTVPTPNGDIHVYMDNKTIKVKATEGKGYLTIQSREGHHHHHH	not soluble
MSLSAFFAHLHLHSEFSLQDGLIRVKPLMQAVAQAGMPAVALTDQGNLFGAVKFYRAAVNAGVKPIIGAEIRVADADASERPARLVLLCADTQGYRTLTRLLTRGYLEGQQQGVPVVDREWLRGRCAGLIGLSGGRVGDVGRALLSGEPALAARKLEFWREQFGDRYYLELQRTGRPGDEEHVQAAVELATAHGVAVVATNDVCFLRPEDEGHHHHHH	not soluble
MAGSSEEAPDYGRGVVIMDDWPGYDLNLFTYPQHYYGDLEYVLIPHGIIVDRIERLAKDIMKDIGYSDIMVLCVLKGGYKFCADLVEHLKNISRNSDRFVSMKVDFIRLKSYRNDQSMGEMQIIGGDDLSTLAGKNVLIVEDVVGTGRTMKALLSNIEKYKPNMIKVASLLVKRTSRSDGFRPDYAGFEIPNLFVVGYALDYNEYFRDLNHICVINEHGKEKYRV	soluble
